Several values for one entry are separate records, joined by “and”; a condition that tells them apart may be missing. Equal values may be shown once.
Columns and labels:
human ROR1 = target: T1, human ROR1 (human, UniProt Q01973 30-937); assay: flow cytometry on ROR1-positive RPMI8226 cells
T1 construct: whole, on cells; Endogenous ROR1 on ROR1-positive cells; also called tyrosine-protein kinase transmembrane receptor ROR1; neurotrophic tyrosine kinase, receptor-related 1
Procedure: a) Anti-ROR1 antibodies coming either from the immunization approach and/or from the screening of the recombinant in vitro library described above are analyzed by flow cytometry for binding to human ROR1 on HEK293-ROR1 cells. Briefly, cultured cells are harvested, counted and cell viability is evaluated using the Trypan Blue exclusion method. Viable cells are then adjusted to 2×10⁶ cells per ml in BSA-containing FACS Stain Buffer (BD Biosciences). 90 μl of this cell suspension are further aliquoted per well into a round-bottom 96-well plate. 10 μl of the anti-ROR1 antibodies or corresponding IgG control are added to the cell-containing wells to obtain final concentrations of 0.1 pM to 200 nM. All constructs and control IgG are used at the same molarity. […] The samples are resuspended in 200 μl/well FACS Stain Buffer and acquired and analyzed using an LSR II flow cytometer with FACSDiva® software (BD Biosciences). The mean fluorescence intensity (MFI) is plotted as a function of anti-ROR1 antibody concentration to obtain the binding curve and to calculate the effective antibody concentration to reach 50% of maximal binding (EC₅₀). […]
c) ROR1 expression was then assessed on B lymphocyte myeloma RPMI8226 cell lines by flow cytometry, using the methods described above.

human CD3ε = target: T2, human CD3ε (human, UniProt P07766 23-207); assay: flow cytometry on Jurkat T cells expressing human CD3
T2 construct: whole, on cells; On Jurkat cells as part of the TCR/CD3 complex; also called CD3 epsilon
Procedure: a) Anti-ROR1/anti-CD3 T cell bispecific antibodies generated in Example 3 were also analyzed by flow cytometry for their binding properties to human ROR1 expressed on primary B-CLL cells or human CD3 expressed on human leukemic T cells Jurkat (ATCC TIB-152). Jurkat T cells were cultured in RPMI supplemented with 10% fetal calf serum. Briefly, cultured cells were harvested, counted and cell viability was evaluated using ViCell. Viable cells were then adjusted to 2×10⁶ cells per ml in FACS Stain Buffer (BD Biosciences) containing 0.1% BSA. 100 μl of this cell suspension were further aliquoted per well into a round-bottom 96-well plate. […] After incubation for 30 min at 4° C., cells were centrifuged (5 min, 350×g), washed twice with 150 μl/well BSA-containing FACS Stain Buffer (BD Biosciences), then cells were fixed using 100 ul BD Fixation buffer per well (#BD Biosciences, 554655) at 4° C. for 20 min, resuspended in 120 μl FACS buffer and analyzed using BD FACS CantoII. Binding of the anti-ROR1/anti-CD3 T cell bispecific antibodies to B-CLL cells and T cells were evaluated and the mean fluorescence intensity was determined gated on either ROR1-expressing B-CLL cells or CD3-expressing Jurkat T cells and plotted in histograms or dot plots. […]

T1 sequence (Q01973 30-937): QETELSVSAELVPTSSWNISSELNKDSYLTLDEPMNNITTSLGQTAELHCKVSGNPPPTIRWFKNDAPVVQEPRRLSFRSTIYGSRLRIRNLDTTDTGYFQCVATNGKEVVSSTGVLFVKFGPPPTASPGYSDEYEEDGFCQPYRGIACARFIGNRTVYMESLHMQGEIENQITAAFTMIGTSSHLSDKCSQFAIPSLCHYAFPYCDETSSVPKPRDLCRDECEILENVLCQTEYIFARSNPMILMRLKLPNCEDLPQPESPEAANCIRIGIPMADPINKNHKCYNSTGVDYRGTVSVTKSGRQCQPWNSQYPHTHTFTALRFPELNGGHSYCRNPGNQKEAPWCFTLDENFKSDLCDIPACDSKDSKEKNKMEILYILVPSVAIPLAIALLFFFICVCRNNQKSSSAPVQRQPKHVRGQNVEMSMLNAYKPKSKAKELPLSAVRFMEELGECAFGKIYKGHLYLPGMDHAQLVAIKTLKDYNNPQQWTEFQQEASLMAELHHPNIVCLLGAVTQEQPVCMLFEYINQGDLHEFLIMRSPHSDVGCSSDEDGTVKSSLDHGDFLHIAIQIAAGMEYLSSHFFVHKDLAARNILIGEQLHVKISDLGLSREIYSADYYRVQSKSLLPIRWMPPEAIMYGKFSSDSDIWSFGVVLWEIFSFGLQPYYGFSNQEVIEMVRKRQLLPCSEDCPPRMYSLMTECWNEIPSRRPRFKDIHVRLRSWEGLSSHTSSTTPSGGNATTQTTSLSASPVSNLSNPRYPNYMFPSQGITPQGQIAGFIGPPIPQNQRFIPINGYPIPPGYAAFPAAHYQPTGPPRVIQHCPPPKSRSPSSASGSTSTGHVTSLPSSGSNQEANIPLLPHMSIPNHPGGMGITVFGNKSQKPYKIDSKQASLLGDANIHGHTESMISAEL
T2 sequence (P07766 23-207): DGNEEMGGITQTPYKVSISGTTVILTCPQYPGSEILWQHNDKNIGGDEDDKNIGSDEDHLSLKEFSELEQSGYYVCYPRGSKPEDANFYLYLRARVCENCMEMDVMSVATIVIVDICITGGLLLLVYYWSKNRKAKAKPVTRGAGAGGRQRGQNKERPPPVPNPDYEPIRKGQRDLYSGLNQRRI

B1: anti-ROR1 IgG1 antibody (antibody, V domains shown)
VH: QEQLVESGGRLVTPGGSLTLSCKASGFDFSAYYMSWVRQAPGKGLEWIATIYPSSGKTYYATWVNGRFTISSDNAQNTVDLQMNSLTAADRATYFCARDSYADDGALFNIWGPGTLVTISS
VL: ELVLTQSPSVSAALGSPAKITCTLSSAHKTDTIDWYQQLQGEAPRYLMQVQSDGSYTKRPGVPDRFSGSSSGADRYLIIPSVQADDEADYYCGADYIGGYVFGGGTQLTVLG
notes: Bivalent human IgG1 kappa; Alexa488-labelled in some assays; also called anti-ROR1 antibody; anti-ROR1 IgG antibody
- EC50 (human ROR1): 0.087 nM and 0.013 µg/mL
- binding result (human CD3ε): no binding (tested: 3 nM to 500 nM)

Source: patent US20160297881A1 (ENGMAB, published 2016)
